Experimental data taken from patent US20250027068.
Substitutions are numbered along the chain they refer to.

B1: PRT-238 (protein)
chain: MEVVEVWPYGQNPNGKTEILSQTEDSESLQRLRDIEDFQAEKKMQNVVYTKWLDGVDVKDHDFRKIVDGGIAYYATPLLNGRGFYDINKDFNRDSDLCAAAVAANMFHYWLDINRDNVDRFLRQNPEKHGIIELPDGQLKLSDFLNTYESDHGYRDKSKLFDYISNNFNGPVWTDKLLDNYINGYGYNYKYGRTIEDPTKNTSKINFFKEVFNEKILTNNHSIRNQNEFSVLLSEALYTGKAIGLSYGPAGLRHSLGHIISVWGADLDADGNVVAIYVTDSDDKKLTIGDERVGLKRYKISTDDENRLRLTAYEETHNTGGQIRGLWTLDTGKYAWADYFDKTEQTGTDQAEQLEHHHHHH
B2: PRT-22 (protein)
chain: MANQEIRYSEVTPYHVTSVWTKGVTPPANFTQGEDVFHAPYVANQGWYDITKTFNGKDDLLCGAATAGNMLHWWFDQNKDQIERYLKEHPEKQKINFNGEQMFDVKEAIDTKNSQLDSKLFEYFKEKAFPYLSTKHLGVFPDHVIDMFINGYRLSLTNHGPTPVKEGSKDPRGGIFDAVFTRGDQSKLLTSRHDFKEKNLKEISDLIKKELTEGKALGLSHTYANVRINHVINLWGADFDSNGNLKAIYVTDSDSNASIGMKKYFVGVNSAGKVAISAKEIKEDNIGAQVLGLFTLSTGQDIWNQTN
B3: PRT-239 (protein)
chain: B1 chain with I71T, D96L, A99S, P171G, V172L, Y189K, S222Q, E305N
B4: PRT-240 (protein)
chain: MEVVEVWPYGQNPNGKTEILSQTEDSESLQRLRDIEDFQAEKKMQNVVYTKWLDGVDVKDHDFRKIVDGDYAYYATPLLNGRGFYDINKDFNRDSDKCAAAVAANMFHYWLDINRDNVDRFLRQNPEKHGIIELPDGQLKLSDFLNTYESDHGYRDKSKLFDFISNAFNGPVWADKLLDNYINGYGYNKKYGRTIEDPTKNTSKFNFFKEVFNEKILTNNHQIRNQNEFSVLLSEALYTGKAIGLAYGPGGLRHSLGHIISVWGADLDADGNVVAIYVTDSDDKKLTIGDERVGLKRYKISTDDNNRLRLTTYEETHNTGAQIRGLETLDTGKYAWADYFDKTEQTGTDQAEQLEHHHHHH
B5: Ide85 (protein)
chain: MANQEIRYSEVTPYHVTSVWTKGVTPPAKFTQGEDVFHAPYVANQGWYDITKTFNGKDDLLCGAATAGNMLHWWFDQNKEKIEAYLKKHPDKQKIMFGDQELLDVRKVINTKGDQTNSELFNYFRDKAFPGLSARRIGVMPDLVLDMFINGYYLNVYKTQTTDVNRTYQEKDRRGGIFDAVFTRGDQSKLLTSRHDFKEKNLKEISDLIKKELTEGKALGLSHTYANVRINHVINLWGADFDSNGNLKAIYVTDSDSNASIGMKKYFVGVNSAGKVAISAKEIKEDNIGAQVLGLFTLSTGQDSWNQTN
B6: IdeS (protein)
chain: ANQEIRYSEVTPYHVTSVWTKGVTPPANFTQGEDVFHAPYVANQGWYDITKTFNGKDDLLCGAATAGNMLHWWFDQNKDQIKRYLEEHPEKQKINFNGEQMFDVKEAIDTKNHQLDSKLFEYFKEKAFPYLSTKHLGVFPDHVIDMFINGYRLSLTNHGPTPVKEGSKDPRGGIFDAVFTRGDQSKLLTSRHDFKEKNLKEISDLIKKELTEGKALGLSHTYANVRINHVINLWGADFDSNGNLKAIYVTDSDSNASIGMKKYFVGVNSAGKVAISAKEIKEDNIGAQVLGLFTLSTGQDSWNQTN
B7: IdeZ (protein)
chain: DDYQRNATEAYAKEVPHQITSVWTKGVTPLTPEQFRYNNEDVIHAPYLAHQGWYDITKAFDGKDNLLCGAATAGNMLHWWFDQNKTEIEAYLSKHPEKQKIIFNNQELFDLKAAIDTKDSQTNSQLFNYFRDKAFPNLSARQLGVMPDLVLDMFINGYYLNVFKTQSTDVNRPYQDKDKRGGIFDAVFTRGDQTTLLTARHDLKNKGLNDISTIIKQELTEGRALALSHTYANVSISHVINLWGADFNAEGNLEAIYVTDSDANASIGMKKYFVGINAHGHVAISAKKIEGENIGAQVLGLFTLSSGKDIWQKLS
B8: IdeZ2 (protein)
chain: EVVEVWPYGQNPNGKTEILSQTEDSESLQRLRDIEDFQAEKKMQNVVYTKWLDGVDVKDHDFRKIVDGNIAYYATPLLNGRGFYDINKDFNRDSDKCAAAVAANMFHYWLDINRDNVDRFLRQNPEKHGIIELPDGQLKLSDFLNTYESDHGYRDKSKLFDFISNNFNGPVWTDKLLDNYINGYAYNYKYGRTIEDPTKNTSKINFFKEVFNEKILTNNHSIRNQNEFSVLLSEALYTGKAIGLSYGPAGLRHSLGHIISVWGADLDADGNVVAIYVTDSDDKKLTIGDERVGLKRYKISTDDENRLRLTAYEETHNTGGQIRGLWTLDTGKYAWADYFDKTEQTGTDQAEQ
B9: PRT-241 (protein)
chain: MVTSVWTKGVTPPANFTQGEDVFHAPYVANQGWYDITKTFNGKDDLLCGAATAGNMLHWWFDQNKDQIKRYLEEHPEKQKINFNGEQMFDVKEAIDTKNHQLDSKLFEYFKEKAFPNLSTKHLGVFPDHVIDMFINGYRLSLLNHGPTPVKEGSKDPRGGIFDAVFTRGDQSKLLTSRHDFKEKNLKEISDLIKKELTEGKALGLSHTYANVRINHVINLWGADFDSNGNLKAIYVTDSDSNASIGMKKYFVGVNSSGKVAISAKEIKEDNIGAQVLGLFTLSTGQDSWNQTN
B10: PRT-243 (protein)
chain: B9 chain with T39L, E108D, V212G, A243P
B11: PRT-251 (protein)
chain: MVTSVWTKGVTPPTNFTYGEDVLHAPYVANQGWYDITKTFNGKDDLLCGAATAGNMLHWWFDQNKEQIENYLKKHPEKQKINFNGEQMFDVKEAIDTKDSQLDSKLFEYFLEKAFPNLSTKHLGVFPDHVIDMFINGYRLSLLNHGPTPVKRGSKDPRGGIFDAVFTRGDQSKLLTNRHDFKEKTLKEISDLIKQELTEGKALGISHTYANVRINHVINLWGADFDAEGNLEAIAVTDSDSNASIGMKKYFVGVNSSGKVAISAKEIEEDNIGAQVLGLFTLSTGQDIWNQTN
B12: PRT-259 (protein)
chain: B11 chain with D45N, M88L, L111K, P157K, D170V, A235Y, S241T
B13: PRT-267 (protein)
chain: B11 chain with N15D, T17I, V28K, N30G, E108D, L111K, F181L, E183N, A235Y, A243P
B14: PRT-275 (protein)
chain: MVTSVWTKGVTPPTDFIYGEDVLHAPYKAGQGWYDITKLFNGKDNLLCGAATAGNMLHWWFDQNKEQIENYLKKHPEKQKIIFNNQELFDLKAAIDTKDSQLDSKLFDYFKEKAFPNLSTKHLGVFPDHVIDMFINGYRLSLLNHGPTPVKRGSKDKRGGIFDAVFTRGVQSKLLTNRHDLKNKTLKEISDLIKQELTEGKALGISHTYANGRINHVINLWGADFDAEGNLEAIYVTDSDTNPSIGMKKYFVGVNSSGKVAISAKEIEEDNIGAQVLGLFTLSTGQDIWNQTN
B15: PRT-283 (protein)
chain: MVTSVWTKGVTPPAKFTQGEDVFHAPYDANQGWYDITKTFNGKDDLLCGAATAGNMLHWWFDQNKEKIEAYLKKHPDKQKIMFGDQELLDVRKVINTKGDQTNSELFNYFRDKAFPNLSARRIGVMPDLVLDMFINGYYLNVYKTQTTDVNRTYQEKDRRGGIFDAVFTRGDQSKLLTSRHDFKEKNLKEISDLIKKELTEGKALGLSHTYANVRISHVINLWGADFDSNGNLKAIYVTDSDSNASIGMKKYFVGVNSAGKVAISAKEIKEDNIGAQVLGLFTLSTGQDSWNQTN

molecular target: pooled human IgG

Going from B1 to B3, the Enzyme Activity Endpoint Assay (purified): Fab'2 rises from 0 ng/µL to 49 ng/µL.

First: B4
Second: B5
The Enzyme Activity Endpoint Assay (purified): Fab'2 of the first is lower: 0 ng/µL for the first, 1130 ng/µL for the second.

Compared with B6, B7 is lower in Enzyme Activity Endpoint Assay (purified): Fab'2: 1360 ng/µL for the first, 1290 ng/µL for the second.

First: B8
Second: B9
The Enzyme Activity Endpoint Assay (purified): Fab'2 of the first is higher: 1340 ng/µL for the first, 731 ng/µL for the second.

Going from B1 to B3, the Enzyme Activity Endpoint Assay (purified): Fc rises from 81 ng/µL to 269 ng/µL.

First: B4
Second: B5
The Enzyme Activity Endpoint Assay (purified): Fc of the first is lower: 82 ng/µL for the first, 615 ng/µL for the second.

Compared with B6, B7 is lower in Enzyme Activity Endpoint Assay (purified): Fc: 524 ng/µL for the first, 481 ng/µL for the second.

Going from B8 to B9, the Enzyme Activity Endpoint Assay (purified): Fc falls from 566 ng/µL to 406 ng/µL.

First: B1
Second: B3
The Enzyme Activity Endpoint Assay (purified): IgG of the first is higher: 1610 ng/µL for the first, 689 ng/µL for the second.

First: B4
Second: B5
The Enzyme Activity Endpoint Assay (purified): IgG of the first is higher: 1400 ng/µL for the first, 0 ng/µL for the second.

B6 and B7 are the same in Enzyme Activity Endpoint Assay (purified): IgG: 0 ng/µL for the first, 0 ng/µL for the second.

B8 and B9 are the same in Enzyme Activity Endpoint Assay (purified): IgG: 0 ng/µL for the first, 0 ng/µL for the second.

First: B1
Second: B3
The Enzyme Activity Endpoint Assay (purified): scIgG of the first is lower: 28 ng/µL for the first, 360 ng/µL for the second.

Going from B4 to B5, the Enzyme Activity Endpoint Assay (purified): scIgG falls from 36 ng/µL to 0 ng/µL.

B6 and B7 are the same in Enzyme Activity Endpoint Assay (purified): scIgG: 0 ng/µL for the first, 0 ng/µL for the second.

B8 and B9 are the same in Enzyme Activity Endpoint Assay (purified): scIgG: 0 ng/µL for the first, 0 ng/µL for the second.

With B2 the Enzyme Activity Endpoint Assay: Fab′2 was 37 ng/µL.

In the case of B2, the Enzyme Activity Endpoint Assay: Fc is reported as 116 ng/µL.

Work on B2 yielded an Enzyme Activity Endpoint Assay: IgG of 19 ng/µL.

For B2, the Enzyme Activity Endpoint Assay: scIgG was 23 ng/µL.

molecular target: pooled human IgG (human IgG1,2,3 and 4)

First: B10
Second: B11
The Enzyme Activity Endpoint Assay: Fab′2 of the first is lower: 967 ng/µL for the first, 1070 ng/µL for the second.

Compared with B12, B13 is lower in Enzyme Activity Endpoint Assay: Fab′2: 1100 ng/µL for the first, 1090 ng/µL for the second.

First: B14
Second: B15
The Enzyme Activity Endpoint Assay: Fab′2 of the first is lower: 169 ng/µL for the first, 380 ng/µL for the second.

Going from B10 to B11, the Enzyme Activity Endpoint Assay: Fc rises from 430 ng/µL to 444 ng/µL.

First: B12
Second: B13
The Enzyme Activity Endpoint Assay: Fc of the first is higher: 453 ng/µL for the first, 438 ng/µL for the second.

Compared with B14, B15 is higher in Enzyme Activity Endpoint Assay: Fc: 257 ng/µL for the first, 271 ng/µL for the second.

First: B10
Second: B11
The Enzyme Activity Endpoint Assay: IgG of the first is higher: 25 ng/µL for the first, 0 ng/µL for the second.

B12 and B13 are the same in Enzyme Activity Endpoint Assay: IgG: 0 ng/µL for the first, 0 ng/µL for the second.

Compared with B14, B15 is higher in Enzyme Activity Endpoint Assay: IgG: 97 ng/µL for the first, 186 ng/µL for the second.

B10 and B11 are the same in Enzyme Activity Endpoint Assay: scIgG: 0 ng/µL for the first, 0 ng/µL for the second.

B12 and B13 are the same in Enzyme Activity Endpoint Assay: scIgG: 0 ng/µL for the first, 0 ng/µL for the second.

Compared with B14, B15 is lower in Enzyme Activity Endpoint Assay: scIgG: 589 ng/µL for the first, 91 ng/µL for the second.
